Data as given in patent US20180282373A1 (RESEARCH FOUNDATION FOR THE STATE UNIVERSITY OF NEW YORK, published 2018).
One block for each binder: values may come before it.

Key:
[1] = target: T1, purified recombinant full-length WDR5 (UniProt P61964 2-334); test: GST pull-down with purified WDR5, Coomassie-stained gel
[2] = target: endogenous WDR5 (MCF-7 cell extracts; T-REx HEK293 nuclear extracts) (human, UniProt P61964 2-334); test: anti-Flag co-immunoprecipitation from T-REx HEK293 cells, Western blot
Procedure: Co-immunoprecipitation from mammalian cells. […] Following induction with doxycycline, nuclear extracts were prepared as described and incubated with anti-Flag M2 agarose beads (Sigma) for 3 h. Bound proteins were eluted with SDS sample buffer after extensive washing and analyzed by Western blotting.

[3] = target: T1, purified recombinant full-length WDR5; test: cell-based or functional assay
[4] = target: T1, purified recombinant full-length WDR5; test: ITC at 20 C, Win6mer (200 µM) titrated into full-length WDR5 (20 µM); 95% confidence interval 1.7-4.2 nM
Procedure: (§1) In the present disclosure, we synthesized a six-residue peptidomimetic.
(§2) Isothermal titration calorimetry (ITC). […] ITC experiments were carried out at 20° C. using a VP-ITC micro-calorimeter (MicroCal). […] Reference power was set to 10 μCal/sec and stirring speed was set to 295 rpm. Data were integrated using NITPIC. SEDPHAT was used to fit the integrated data to a single-site heterogeneous association model, using simulated annealing and Maxquardt-Levenberg algorithms. Automatic confidence interval search with projection method was applied to estimate the error of the determined thermodynamic parameters. Confidence interval was set to 2σ (95%). ITC figure was generated using GUSSI.

[5] = target: T1, purified recombinant full-length WDR5; test: cell-based or functional assay; remark: listed apart in the source
[6] = target: T1, purified recombinant full-length WDR5; test: ITC, Kd compared with Table I
Procedure: as §1, §2

binding result [1]: no binding (tested: 3 µM)
B1: GST-tagged SETd1B Win-SET domain, Setd1B(1727-1966), R1748A (enzyme)
chain: LSSAKKKKRDDGIREHVTGCAASEGFYTIDKKDKLRYLNSSRASTDEPPADTQGMSIPAQPHASTRAGSERRSEQRRLLSSFTGSCDSDLLKFNQLKFRKKKLKFCKSHIHDWGLFAMEPIAADEMVIEYVGQNIRQVIADMREKRYEDEGIGSSYMFRVDHDTIIDATKCGNFARFINHSCNPNCYAKVITVESQKKIVIYSKQHINVNEEITYDYKFPIEDVKIPCLCGSENCRGTLN
notes: also called SETd1B^R1748A; SETd1B Win motif mutant; not shown: GST tag of the pGST parallel vector, with its linker, at the N end

binding result [2]: no binding
B2: Flag-tagged full-length human SETd1B, Win motif arginine to alanine mutant (enzyme)
chain: MENSHPPHHHHQQPPPQPGPSGERRNHHWRSYKLMIDPALKKGHHKLYRYDGQHFSLAMSSNRPVEIVEDPRVVGIWTKNKELELSVPKFKIDEFYVGPVPPKQVTFAKLNDNIRENFLRDMCKKYGEVEEVEILYNPKTKKHLGIAKVVFATVRGAKDAVQHLHSTSVMGNIIHVELDTKGETRMRFYELLVTGRYTPQTLPVGELDAVSPIVNETLQLSDALKRLKDGGLSAGCGSGSSSVTPNSGGTPFSQDTAYSSCRLDTPNSYGQGTPLTPRLGTPFSQDSSYSSRQPTPSYLFSQDPAVTFKARRHESKFTDAYNRRHEHHYVHNSPAVTAVAGATAAFRGSSDLPFGAVGGTGGSSGPPFKAQPQDSATFAHTPPPAQATPAPGFKSAFSPYQTPVAHFPPPPEEPTATAAFGARDSGEFRRAPAPPPLPPAEPLAKEKPGTPPGPPPPDTNSMELGGRPTFGWSPEPCDSPGTPTLESSPAGPEKPHDSLDSRIEMLLKEQRTKLLFLREPDSDTELQMEGSPISSSSSQLSPLAPFGTNSQPGFRGPTPPSSRPSSTGLEDISPTPLPDSDEDEELDLGLGPRPPPEPGPPDPAGLLSQTAEVALDLVGDRTPTSEKMDEGQQSSGEDMEISDDEMPSAPITSADCPKPMVVTPGAAAVAAPSVLAPTLPLPPPPGFPPLPPPPPPPPPQPGFPMPPPLPPPPPPPPPAHPAVTVPPPPLPAPPGVPPPPILPPLPPFPPGLFPVMQVDMSHVLGGQWGGMPMSFQMQTQVLSRLMTGQGACPYPPFMAAAAAAASAGLQFVNLPPYRGPFSLSNSGPGRGQHWPPLPKFDPSVPPPGYMPRQEDPHKATVDGVLLVVLKELKAIMKRDLNRKMVEVVAFRAFDEWWDKKERMAKASLTPVKSGEHKDEDRPKPKDRIASCLLESWGKGEGLGYEGLGLGIGLRGAIRLPSFKVKRKEPPDTTSSGDQKRLRPSTSVDEEDEESERERDRDMADTPCELAKRDPKGVGVRRRPARPLELDSGGEEDEKESLSASSSSSASSSSGSSTTSPSSSASDKEEEQESTEEEEEAEEEEEEEVPRSQLSSSSTSSTSDKDDDDDDSDDRDESENDDEDTALSEASEKDEGDSDEEETVSIVTSKAEATSSSESSESSEFESSSESSPSSSEDEEEVVAREEEEEEEEEEMVAEESMASAGPEDFEQDGEEAALAPGAPAVDSLGMEEEVDIETEAVAPEERPSMLDEPPLPVGVEEPADSREPPEEPGLSQEGAMLLSPEPPAKEVEARPPLSPERAPEHDLEVEPEPPMMLPLPLQPPLPPPRPPRPPSPPPEPETTDASHPSVPPEPLAEDHPPHTPGLCGSLAKSQSTETVPATPGGEPPLSGGSSGLSLSSPQVPGSPFSYPAPSPSLSSGGLPRTPGRDFSFTPTFSEPSGPLLLPVCPLPTGRRDERSGPLASPVLLETGLPLPLPLPLPLPLALPAVLRAQARAPTPLPPLLPAPLASCPPPMKRKPGRPRRSPPSMLSLDGPLVRPPAGAALGRELLLLPGQPQTPVFPSTHDPRTVTLDFRNAGIPAPPPPLPPQPPPPPPPPPVEPTKLPFKELDNQWPSEAIPPGPRGRDEVTEEYMELAKSRGPWRRPPKKRHEDLVPPAGSPELSPPQPLFRPRSEFEEMTILYDIWNGGIDEEDIRFLCVTYERLLQQDNGMDWLNDTLWVYHPSTSLSSAKKKKRDDGIREHVTGCAASEGFYTIDKKDKLRYLNSSRASTDEPPADTQGMSIPAQPHASTRAGSERRSEQRRLLSSFTGSCDSDLLKFNQLKFRKKKLKFCKSHIHDWGLFAMEPIAADEMVIEYVGQNIRQVIADMREKRYEDEGIGSSYMFRVDHDTIIDATKCGNFARFINHSCNPNCYAKVITVESQKKIVIYSKQHINVNEEITYDYKFPIEDVKIPCLCGSENCRGTLN
notes: mature; also called SETd1B Win motif mutant (full-length); not shown: Flag tag

IC50, inhibition of MLL1 core complex methyltransferase activity, H3K4me0 substrate (scintillation proximity assay) [3]: 2300 nM
IC50, inhibition of MLL1 core complex methyltransferase activity, H3K4me1 substrate (scintillation proximity assay) [3]: 2200 nM
IC50, inhibition of SETd1A core complex methyltransferase activity, H3K4me0 substrate (scintillation proximity assay) [3]: 3200 nM
IC50, inhibition of SETd1A core complex methyltransferase activity, H3K4me1 substrate (scintillation proximity assay) [3]: 2900 nM
IC50, inhibition of SETd1A core complex methyltransferase activity, H3K4me2 substrate (scintillation proximity assay) [3]: 2400 nM
Kd [4]: 2.9 nM
IC50, inhibition of MLL1 core complex, 0.5 µM enzyme complex assayed [5]: 300 nM
IC50, inhibition of MLL1 core complex, 1 µM enzyme complex assayed [5]: 800 nM
IC50, inhibition of MLL1 core complex, 1.8 µM enzyme complex assayed [5]: 2200 nM
average IC50, inhibition of MLL1 core complex (2 µM of enzyme complex assayed) [5]: 2200 nM
average IC50, inhibition of SETd1A core complex (2 µM of enzyme complex assayed) [5]: 2500 nM
fold increase in binding affinity over the best naturally occurring Win motif sequence [6]: ~18 fold
B3: Win6mer, Ac-ARTEVY-NH2 (SEQ ID NO:8, N-terminus acetylated and C-terminus amidated) (peptide)
peptide: Ac-ARTEVY-NH2
notes: Synthesized by GenScript; also called 6-mer Win motif peptidomimetic
